Test results as given in US20250135048A1, “Fibroblast activation protein compound or salt with albumin dual-binding function” (National Atomic Research Institute, priority 2023, published 2025).

Legend:
[1] = nanoSPECT/CT imaging biodistribution in blood of heart of HEK-293-FAP tumor-bearing mice; details: BALB/c nude mice, nanoSPECT/CT semi-quantification
Procedure: (§1) The HEK-293 human embryonic kidney cancer cells expressing FAP (HEK-293-FAP cells) are inoculated with 4×10^6 cells at the forward right flanks of BALB/c nude mice. […] These drugs are prepared to about 100 μL volume in normal saline. The nanoSPECT/CT imaging is performed at 1, 4, and 24 h after the intravenously administrated via tail vein.
(§2) The nanoSPECT/CT imaging is performed at 1, 4, and 24 h after administration to monitor the distribution of radiopharmaceuticals in the animal. The images are semi-quantification by using imaging analysis software. The SPECT count value of reference source is obtained by using imaging analysis software. […] The SPECT count value is obtained from region of image of each target organ, and obtained the activity/volume of each target organ by using the conversion formula.

[2] = system: HEK-293 human embryonic kidney cancer cells expressing FAP (HEK-293-FAP cells) tumor; experiment: nanoSPECT/CT imaging biodistribution in tumor of HEK-293-FAP tumor-bearing mice; details: BALB/c nude mice, nanoSPECT/CT semi-quantification
Procedure: as §1, §2

[3] = 1 h after intravenous administration via tail vein
[4] = 4 h after intravenous administration via tail vein
[5] = 24 h after intravenous administration via tail vein

Row | Structure (SMILES) | Blood of heart biodistribution value [1, 3] | Blood of heart biodistribution value [1, 4] | Blood of heart biodistribution value [1, 5] | Tumor biodistribution value [2, 3] | Tumor biodistribution value [2, 4] | Tumor biodistribution value [2, 5]
1 | CN(CCCN1CCN(C(=O)[C@H](COCCNC(=O)CCCc2ccc(I)cc2)NC(=O)[C@H](CCCCSC2CC(=O)N(CCC(=O)N[C@@H](CCCCN)C(=O)N[C@@H](CCCCN)C(=O)N[C@@H](CCCCN)C(=O)N[C@@H](CCCCN)C(=O)N[C@@H](CCCCN)C(=O)N[C@@H](CCCCN)C(=O)N[C@@H](CCCCN)C(=O)N[C@@H](CCCCN)C(=O)O)C2=O)NC(=O)CNC(=O)CN2CCN(CC(=O)O)CCN(CC(=O)O)CCN(CC(=O)O)CC2)CC1)c1ccc2nccc(C(=O)NCC(=O)N3CC(F)(F)C[C@H]3C#N)c2c1 (stereo partly drawn) [Lu-177-INER-FAPI-1.12, metal not drawn] | 16.19 % ID/mL | 13.33 % ID/mL | 5.50 % ID/mL | 4.71 % ID/mL | 5.08 % ID/mL | 4.21 % ID/mL
2 | CN(CCCN1CCN(C(=O)[C@H](COCCNC(=O)CCCc2ccc(I)cc2)NC(=O)[C@H](CCCCSC2CC(=O)N(CCC(=O)N[C@@H](CCCCN)C(=O)N[C@@H](CCCCN)C(=O)N[C@@H](CCCCN)C(=O)N[C@@H](CCCCN)C(=O)N[C@@H](CCCCN)C(=O)N[C@@H](CCCCN)C(=O)N[C@@H](CCCCN)C(=O)N[C@@H](CCCCN)C(=O)N[C@@H](CCCCN)C(=O)N[C@@H](CCCCN)C(=O)N[C@@H](CCCCN)C(=O)N[C@@H](CCCCN)C(=O)O)C2=O)NC(=O)CNC(=O)CN2CCN(CC(=O)O)CCN(CC(=O)O)CCN(CC(=O)O)CC2)CC1)c1ccc2nccc(C(=O)NCC(=O)N3CC(F)(F)C[C@H]3C#N)c2c1 (stereo partly drawn) [Lu-177-INER-FAPI-1.13, metal not drawn] | 15.70 % ID/mL | 12.33 % ID/mL | 5.44 % ID/mL | 8.03 % ID/mL | 8.54 % ID/mL | 5.44 % ID/mL
3 | CN(CCCN1CCN(C(=O)[C@H](COCCNC(=O)CCCc2ccc(I)cc2)NC(=O)[C@H](CCCCSC2CC(=O)N(CCC(=O)N[C@@H](CCCNC(=N)N)C(=O)N[C@@H](CCCNC(=N)N)C(=O)N[C@@H](CCCNC(=N)N)C(=O)N[C@@H](CCCNC(=N)N)C(=O)N[C@@H](CCCNC(=N)N)C(=O)N[C@@H](CCCNC(=N)N)C(=O)N[C@@H](CCCNC(=N)N)C(=O)N[C@@H](CCCNC(=N)N)C(=O)N[C@@H](CCCNC(=N)N)C(=O)N[C@@H](CCCNC(=N)N)C(=O)N[C@@H](CCCNC(=N)N)C(=O)N[C@@H](CCCNC(=N)N)C(=O)O)C2=O)NC(=O)CNC(=O)CN2CCN(CC(=O)O)CCN(CC(=O)O)CCN(CC(=O)O)CC2)CC1)c1ccc2nccc(C(=O)NCC(=O)N3CC(F)(F)C[C@H]3C#N)c2c1 (stereo partly drawn) [Lu-177-INER-FAPI-1.23, metal not drawn] | 10.54 % ID/mL | 8.89 % ID/mL | 3.49 % ID/mL | 6.58 % ID/mL | 5.96 % ID/mL | 3.23 % ID/mL
